Where no end group is shown, it is not given here. The star is where a group is joined. AMCA = 7-amino-4-methyl-coumarin-3-acetic acid, Cc1c(CC(=O)*)c(=O)oc2cc(N)ccc12
Target: HLA-DR1 (human (endogenous in WT-100))
Assay: SEC

Binder: {AMCA}-AILEFRAMAQFSRKTD [AMCA-SP3(1-16), synthetic self-peptide SP3 labelled at the NH2 terminus]
- binding capacity relative to IM(18-29): 3 fold
